Measured values taken from PMC8533005.

What was measured:
Assay in all cases: purified protein
purified protein [1] = substrate: O=S(O)(O)=S; format: biochemical, Saccharomyces cerevisiae
purified protein [2] = substrate: O=S(O)(O)=S; details: pH 7.4; 37.0 °C
purified protein [3] = substrate: O=S(O)(O)=S; format: biochemical, Homo sapiens; details: Reaction 1, sulfur donor, fixed KCN, 300 mM HEPES pH 7.4, room temperature
Excerpt: thiosulfate:cyanide sulfurtransferase, ferric thiocyanate colorimetry, Michaelis-Menten fit on TST

[4] = Reaction 1, sulfur donor, fixed KCN, 300 mM HEPES pH 7.4, 25 °C

B1: RDL2 (Saccharomyces cerevisiae S288C) (protein)
chain: MFKHSTGILSRTVSARSPTLVLRTFTTKAPKIYTFDQVRNLVEHPNDKKLLVDVREPKEVKDYKMPTTINIPVNSAPGALGLPEKEFHKVFQFAKPPHDKELIFLCAKGVRAKTAEELARSYGYENTGIYPGSITEWLAKGGADVKPKK
notes: His-tagged, pET30a, E. coli BL21(DE3), Ni-NTA and size exclusion; no firm dimer in crystal; active-site loop CAKGVR with Cys106 and Arg111
Purified protein [1]; [4]
  Km: 32.5 ± 3.50 mM
  kcat: 15.32 s⁻¹

B2: RDL2 (Saccharomyces cerevisiae S288C; K108A) (protein)
chain: MFKHSTGILSRTVSARSPTLVLRTFTTKAPKIYTFDQVRNLVEHPNDKKLLVDVREPKEVKDYKMPTTINIPVNSAPGALGLPEKEFHKVFQFAKPPHDKELIFLCAAGVRAKTAEELARSYGYENTGIYPGSITEWLAKGGADVKPKK
notes: as for B1
Purified protein [1]; [4]
  Km: 93.23 ± 2.67 mM
  kcat: 8.71 s⁻¹

B3: RDL1 (Saccharomyces cerevisiae S288C) (protein)
chain: MWKAVMNAWNGTESQSKNVSNIQSYSFEDMKRIVGKHDPNVVLVDVREPSEYSIVHIPASINVPYRSHPDAFALDPLEFEKQIGIPKPDSAKELIFYCASGKRGGEAQKVASSHGYSNTSLYPGSMNDWVSHGGDKLDL
Purified protein [1]; pH 7.4
  Km: 4.0 ± 0.4 mM

B4: TST (Homo sapiens; T253V) (protein)
chain: MVHQVLYRALVSTKWLAESIRTGKLGPGLRVLDASWYSPGTREARKEYLERHVPGASFFDIEECRDTASPYEMMLPSEAGFAEYVGRLGISNHTHVVVYDGEHLGSFYAPRVWWMFRVFGHRTVSVLNGGFRNWLKEGHPVTSEPSRPEPAVFKATLDRSLLKTYEQVLENLESKRFQLVDSRSQGRFLGTEPEPDAVGLDSGHIRGAVNMPFMDFLTEDGFEKGPEELRALFQTKKVDLSQPLIATCRKGVVACHVALAAYLCGKPDVAVYDGSWSEWFRRAPPESRVSQGKSEKA
Purified protein [2]
  Km: 2.43 ± 0.70 mM
  kcat: 0.025 s⁻¹

B5: TST (Homo sapiens) (protein)
chain: MVHQVLYRALVSTKWLAESIRTGKLGPGLRVLDASWYSPGTREARKEYLERHVPGASFFDIEECRDTASPYEMMLPSEAGFAEYVGRLGISNHTHVVVYDGEHLGSFYAPRVWWMFRVFGHRTVSVLNGGFRNWLKEGHPVTSEPSRPEPAVFKATLDRSLLKTYEQVLENLESKRFQLVDSRSQGRFLGTEPEPDAVGLDSGHIRGAVNMPFMDFLTEDGFEKGPEELRALFQTKKVDLSQPLIATCRKGVTACHVALAAYLCGKPDVAVYDGSWSEWFRRAPPESRVSQGKSEKA
notes: codon-optimized synthetic gene, pET30a, E. coli BL21(DE3), Ni-NTA and size exclusion; tandem-domain rhodanese, active-site loop CRKGVT ending in Thr253
Purified protein [3]
  Km: 15.68 ± 2.86 mM
  kcat: 101.73 s⁻¹
